Test results reported in patent US20250084142A1 (INTARCIA THERAPEUTICS, published 2025).
Starred links: 1 amine or outer side, 2 acyl side, 3 side chain; linkers in the order of their positions; H or OH if unused. Non-standard residues stand in square brackets, D forms with d. Groups on a side chain read outwards from the residue. No end group written: not given here. *: point of attachment. C20 diacid = O=C(O)CCCCCCCCCCCCCCCCCCC(=O)*; γGlu = O=C(O)[C@H](CCC(=O)[*:2])N[*:1]; NMeY = CN[C@@H](Cc1ccc(O)cc1)C(=O)O

T1: NPY2R
T1 sequence (P49146 1-381, species assumed, looked up): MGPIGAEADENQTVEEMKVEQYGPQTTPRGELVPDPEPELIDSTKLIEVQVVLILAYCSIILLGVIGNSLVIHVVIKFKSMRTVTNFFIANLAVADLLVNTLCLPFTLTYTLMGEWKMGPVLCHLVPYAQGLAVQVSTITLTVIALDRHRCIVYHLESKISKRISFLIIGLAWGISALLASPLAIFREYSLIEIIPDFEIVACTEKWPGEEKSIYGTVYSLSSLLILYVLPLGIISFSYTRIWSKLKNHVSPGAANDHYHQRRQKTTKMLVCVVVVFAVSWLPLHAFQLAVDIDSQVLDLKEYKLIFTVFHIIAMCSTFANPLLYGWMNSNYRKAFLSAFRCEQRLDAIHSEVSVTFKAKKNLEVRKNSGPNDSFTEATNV

T2: NPY5R
T2 sequence (Q15761 1-445, species assumed, looked up): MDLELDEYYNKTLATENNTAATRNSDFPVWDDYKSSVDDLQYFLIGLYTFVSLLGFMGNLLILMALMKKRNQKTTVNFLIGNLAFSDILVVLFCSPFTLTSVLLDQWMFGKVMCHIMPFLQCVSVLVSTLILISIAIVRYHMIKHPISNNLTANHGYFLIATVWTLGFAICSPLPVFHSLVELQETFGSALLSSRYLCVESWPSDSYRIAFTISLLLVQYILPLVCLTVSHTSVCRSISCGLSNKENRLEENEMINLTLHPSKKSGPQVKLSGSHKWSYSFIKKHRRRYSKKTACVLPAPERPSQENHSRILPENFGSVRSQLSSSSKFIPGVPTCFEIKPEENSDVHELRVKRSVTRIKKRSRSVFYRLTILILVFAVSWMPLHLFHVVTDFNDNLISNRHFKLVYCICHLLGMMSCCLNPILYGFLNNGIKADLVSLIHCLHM


What was measured:
NPY2R = biological target: T1, NPY2R; assay: cell-based or functional assay
NPY5R = biological target: T2, NPY5R; assay: cell-based or functional assay

Binder | NPY2R pEC50 (NPY2R) | NPY5R pEC50 (NPY5R)
PKPEAPGK([γGlu-γGlu-C20 diacid])DASPKEWDRYYKDLRHYLNWLTRQRF-NH2 [Compound A76] | 10.4 -Log(EC50, M) | 8.9 -Log(EC50, M)
PKPEAPGK([γGlu-γGlu-C20 diacid])DASPKEWNRYYKDLRHYLNWLTRQRF-NH2 [Compound A73] | 10.3 -Log(EC50, M) | 8.6 -Log(EC50, M)
PKPEKPGK([γGlu-γGlu-C20 diacid])DASPEEWNRYYKDLRHYLNWLTRQRF-NH2 (N-terminus assumed; SMILES CC(C)C[C@H](NC(=O)[C@H](CC(=O)O)NC(=O)[C@H](CCCCN)NC(=O)[C@H](Cc1ccc(O)cc1)NC(=O)[C@H](Cc1ccc(O)cc1)NC(=O)[C@H](CCCNC(=N)N)NC(=O)[C@H](CC(N)=O)NC(=O)[C@H](Cc1c[nH]c2ccccc12)NC(=O)[C@H](CCC(=O)O)NC(=O)[C@H](CCC(=O)O)NC(=O)[C@@H]1CCCN1C(=O)[C@H](CO)NC(=O)[C@H](C)NC(=O)[C@H](CC(=O)O)NC(=O)[C@H](CCCCNC(=O)CC[C@H](NC(=O)CC[C@H](NC(=O)CCCCCCCCCCCCCCCCCCC(=O)O)C(=O)O)C(=O)O)NC(=O)CNC(=O)[C@@H]1CCCN1C(=O)[C@H](CCCCN)NC(=O)[C@H](CCC(=O)O)NC(=O)[C@@H]1CCCN1C(=O)[C@H](CCCCN)NC(=O)[C@@H]1CCCN1)C(=O)N[C@@H](CCCNC(=N)N)C(=O)N[C@@H](Cc1c[nH]cn1)C(=O)N[C@@H](Cc1ccc(O)cc1)C(=O)N[C@@H](CC(C)C)C(=O)N[C@@H](CC(N)=O)C(=O)N[C@@H](Cc1c[nH]c2ccccc12)C(=O)N[C@@H](CC(C)C)C(=O)N[C@H](C(=O)N[C@@H](CCCNC(=N)N)C(=O)N[C@@H](CCC(N)=O)C(=O)N[C@@H](CCCNC(=N)N)C(=O)N[C@@H](Cc1ccccc1)C(N)=O)[C@@H](C)O) [Compound A74] | 10.3 -Log(EC50, M) | 9 -Log(EC50, M)
PKPEK([γGlu-γGlu-C20 diacid])PGEDASPKEWDRYYKDLRHYLNWLTRQRF-NH2 (N-terminus assumed; SMILES CC(C)C[C@H](NC(=O)[C@H](CC(=O)O)NC(=O)[C@H](CCCCN)NC(=O)[C@H](Cc1ccc(O)cc1)NC(=O)[C@H](Cc1ccc(O)cc1)NC(=O)[C@H](CCCNC(=N)N)NC(=O)[C@H](CC(=O)O)NC(=O)[C@H](Cc1c[nH]c2ccccc12)NC(=O)[C@H](CCC(=O)O)NC(=O)[C@H](CCCCN)NC(=O)[C@@H]1CCCN1C(=O)[C@H](CO)NC(=O)[C@H](C)NC(=O)[C@H](CC(=O)O)NC(=O)[C@H](CCC(=O)O)NC(=O)CNC(=O)[C@@H]1CCCN1C(=O)[C@H](CCCCNC(=O)CC[C@H](NC(=O)CC[C@H](NC(=O)CCCCCCCCCCCCCCCCCCC(=O)O)C(=O)O)C(=O)O)NC(=O)[C@H](CCC(=O)O)NC(=O)[C@@H]1CCCN1C(=O)[C@H](CCCCN)NC(=O)[C@@H]1CCCN1)C(=O)N[C@@H](CCCNC(=N)N)C(=O)N[C@@H](Cc1c[nH]cn1)C(=O)N[C@@H](Cc1ccc(O)cc1)C(=O)N[C@@H](CC(C)C)C(=O)N[C@@H](CC(N)=O)C(=O)N[C@@H](Cc1c[nH]c2ccccc12)C(=O)N[C@@H](CC(C)C)C(=O)N[C@H](C(=O)N[C@@H](CCCNC(=N)N)C(=O)N[C@@H](CCC(N)=O)C(=O)N[C@@H](CCCNC(=N)N)C(=O)N[C@@H](Cc1ccccc1)C(N)=O)[C@@H](C)O) [Compound A78] | 10.2 -Log(EC50, M) | 8.5 -Log(EC50, M)
PK([γGlu-γGlu-C20 diacid])PEAPGKDASPEEWNRYYADARHYLNWLTRQR[NMeY]-NH2 (N-terminus assumed; SMILES CC(C)C[C@H](NC(=O)[C@H](Cc1ccc(O)cc1)NC(=O)[C@H](Cc1c[nH]cn1)NC(=O)[C@H](CCCNC(=N)N)NC(=O)[C@H](C)NC(=O)[C@H](CC(=O)O)NC(=O)[C@H](C)NC(=O)[C@H](Cc1ccc(O)cc1)NC(=O)[C@H](Cc1ccc(O)cc1)NC(=O)[C@H](CCCNC(=N)N)NC(=O)[C@H](CC(N)=O)NC(=O)[C@H](Cc1c[nH]c2ccccc12)NC(=O)[C@H](CCC(=O)O)NC(=O)[C@H](CCC(=O)O)NC(=O)[C@@H]1CCCN1C(=O)[C@H](CO)NC(=O)[C@H](C)NC(=O)[C@H](CC(=O)O)NC(=O)[C@H](CCCCN)NC(=O)CNC(=O)[C@@H]1CCCN1C(=O)[C@H](C)NC(=O)[C@H](CCC(=O)O)NC(=O)[C@@H]1CCCN1C(=O)[C@H](CCCCNC(=O)CC[C@H](NC(=O)CC[C@H](NC(=O)CCCCCCCCCCCCCCCCCCC(=O)O)C(=O)O)C(=O)O)NC(=O)[C@@H]1CCCN1)C(=O)N[C@@H](CC(N)=O)C(=O)N[C@@H](Cc1c[nH]c2ccccc12)C(=O)N[C@@H](CC(C)C)C(=O)N[C@H](C(=O)N[C@@H](CCCNC(=N)N)C(=O)N[C@@H](CCC(N)=O)C(=O)N[C@@H](CCCNC(=N)N)C(=O)N(C)[C@@H](Cc1ccc(O)cc1)C(N)=O)[C@@H](C)O) [Compound A5] | 7.7 -Log(EC50, M) | 8 -Log(EC50, M)
PKPEKPGKDASPK([γGlu-γGlu-C20 diacid])EWNRYYKDLRHYLNWLTRQRF-NH2 (N-terminus assumed; SMILES CC(C)C[C@H](NC(=O)[C@H](CC(=O)O)NC(=O)[C@H](CCCCN)NC(=O)[C@H](Cc1ccc(O)cc1)NC(=O)[C@H](Cc1ccc(O)cc1)NC(=O)[C@H](CCCNC(=N)N)NC(=O)[C@H](CC(N)=O)NC(=O)[C@H](Cc1c[nH]c2ccccc12)NC(=O)[C@H](CCC(=O)O)NC(=O)[C@H](CCCCNC(=O)CC[C@H](NC(=O)CC[C@H](NC(=O)CCCCCCCCCCCCCCCCCCC(=O)O)C(=O)O)C(=O)O)NC(=O)[C@@H]1CCCN1C(=O)[C@H](CO)NC(=O)[C@H](C)NC(=O)[C@H](CC(=O)O)NC(=O)[C@H](CCCCN)NC(=O)CNC(=O)[C@@H]1CCCN1C(=O)[C@H](CCCCN)NC(=O)[C@H](CCC(=O)O)NC(=O)[C@@H]1CCCN1C(=O)[C@H](CCCCN)NC(=O)[C@@H]1CCCN1)C(=O)N[C@@H](CCCNC(=N)N)C(=O)N[C@@H](Cc1c[nH]cn1)C(=O)N[C@@H](Cc1ccc(O)cc1)C(=O)N[C@@H](CC(C)C)C(=O)N[C@@H](CC(N)=O)C(=O)N[C@@H](Cc1c[nH]c2ccccc12)C(=O)N[C@@H](CC(C)C)C(=O)N[C@H](C(=O)N[C@@H](CCCNC(=N)N)C(=O)N[C@@H](CCC(N)=O)C(=O)N[C@@H](CCCNC(=N)N)C(=O)N[C@@H](Cc1ccccc1)C(N)=O)[C@@H](C)O) [Compound A70] | 10.4 -Log(EC50, M) | 8.7 -Log(EC50, M)
PKPEK([γGlu-γGlu-C20 diacid])PGKDASPKEWNRYYKDLRHYLNWLTRQRF-NH2 (N-terminus assumed; SMILES CC(C)C[C@H](NC(=O)[C@H](CC(=O)O)NC(=O)[C@H](CCCCN)NC(=O)[C@H](Cc1ccc(O)cc1)NC(=O)[C@H](Cc1ccc(O)cc1)NC(=O)[C@H](CCCNC(=N)N)NC(=O)[C@H](CC(N)=O)NC(=O)[C@H](Cc1c[nH]c2ccccc12)NC(=O)[C@H](CCC(=O)O)NC(=O)[C@H](CCCCN)NC(=O)[C@@H]1CCCN1C(=O)[C@H](CO)NC(=O)[C@H](C)NC(=O)[C@H](CC(=O)O)NC(=O)[C@H](CCCCN)NC(=O)CNC(=O)[C@@H]1CCCN1C(=O)[C@H](CCCCNC(=O)CC[C@H](NC(=O)CC[C@H](NC(=O)CCCCCCCCCCCCCCCCCCC(=O)O)C(=O)O)C(=O)O)NC(=O)[C@H](CCC(=O)O)NC(=O)[C@@H]1CCCN1C(=O)[C@H](CCCCN)NC(=O)[C@@H]1CCCN1)C(=O)N[C@@H](CCCNC(=N)N)C(=O)N[C@@H](Cc1c[nH]cn1)C(=O)N[C@@H](Cc1ccc(O)cc1)C(=O)N[C@@H](CC(C)C)C(=O)N[C@@H](CC(N)=O)C(=O)N[C@@H](Cc1c[nH]c2ccccc12)C(=O)N[C@@H](CC(C)C)C(=O)N[C@H](C(=O)N[C@@H](CCCNC(=N)N)C(=O)N[C@@H](CCC(N)=O)C(=O)N[C@@H](CCCNC(=N)N)C(=O)N[C@@H](Cc1ccccc1)C(N)=O)[C@@H](C)O) [Compound A71] | 10.7 -Log(EC50, M) | 8.8 -Log(EC50, M)
